T1: murine interleukin-1β converting enzyme (ICE) (mouse)
T1 sequence: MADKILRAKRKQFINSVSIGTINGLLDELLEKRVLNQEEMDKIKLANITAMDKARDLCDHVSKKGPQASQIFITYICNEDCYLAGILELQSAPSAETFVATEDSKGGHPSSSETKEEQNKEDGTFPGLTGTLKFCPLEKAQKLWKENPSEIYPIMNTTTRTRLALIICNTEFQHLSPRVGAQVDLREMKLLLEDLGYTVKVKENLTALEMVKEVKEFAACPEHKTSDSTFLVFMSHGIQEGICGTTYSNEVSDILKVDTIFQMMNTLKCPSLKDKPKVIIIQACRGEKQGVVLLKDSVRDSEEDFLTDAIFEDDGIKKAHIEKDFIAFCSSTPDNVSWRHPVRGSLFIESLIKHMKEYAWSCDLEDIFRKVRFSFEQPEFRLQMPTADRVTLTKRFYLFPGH


Legend:
[1] = target: mouse precursor form of IL-1β (preIL-1β) (mouse) (UniProt P10749)
[2] = target: T1, murine interleukin-1β converting enzyme (ICE) (mouse)

IL-1β (pg/ml) released into the medium by macrophages stimulated with LPS and ATP, ELISA [1] [pg/mL] | percent inhibition of matIL-1β release from LPS-treated ICE +/+ macrophages [2] [%] | Molecule
4430 | – | murine interleukin-1β converting enzyme (ICE)
– | 78 | Ac-YVAD-aldehyde [tetrapeptide aldehyde Ac-YVAD-CHO]
